The target of the assay is soluble HLA-B*0702 (human).

B1: Ipep 1838 (peptide)
peptide: SPGALVVGVI
modifications: not checked
The molecule B1 gave a % competition of 30%.

These data come from patent US7378234.
